In this data set the target is RNA polymerase holoenzyme with sigma70 Q437A (Escherichia coli, UniProt P00579;P0A7Z4;P0A8V2;P0A8T7;P0A800 1-613;1-329;1-1342;1-1407;2-91, Q437A). Kind of data set: fluorescence anisotropy.

B1: PR (WT) (dsDNA)
DNA 1: GCGTGTTGACTATTTTACCTCTGGCGGTGATAATGGTTGCATGTACTAAGGAGGTTGTATGGAACAACGCA
DNA 2: TGCGTTGTTCCATACAACCTCCTTAGTACATGCAACCATTATCACCGCCAGAGGTAAAATAGTCAACACGC
modifications: 5'-C6-amino linker
A word on the Kd: it is a measure of binding affinity in units of concentration. A lower Kd goes with a tighter complex. In turn, B1 returned an equilibrium dissociation constant (Kd) of 14.9 nM.

B2: P1 galP1+P2-P3+ (dsDNA)
DNA 1: TTTTCGCATCTTTTCGTTGCTATGGTTATTTCATACCATAAGCCTAATGGAGCGAATTATGAG
DNA 2: CTCATAATTCGCTCCATTAGGCTTATGGTATGAAATAACCATAGCAACGAAAAGATGCGAAAA
modifications: 5'-C6-amino linker
As to B2, the affinity, expressed as Kd, was 0.76 ± 0.1 nM.

The values above are taken from paper PMC3592454.
